The record followed here is PMC4369429.

The target of this experiment is Steroid receptor coactivator 3 (SRC-3), recombinant, wild type (UniProt Q9Y6Q9). Nature of the experiment: cryo-EM structure.
Chain of UniProt Q9Y6Q9 (Q9Y6Q9 whole entry): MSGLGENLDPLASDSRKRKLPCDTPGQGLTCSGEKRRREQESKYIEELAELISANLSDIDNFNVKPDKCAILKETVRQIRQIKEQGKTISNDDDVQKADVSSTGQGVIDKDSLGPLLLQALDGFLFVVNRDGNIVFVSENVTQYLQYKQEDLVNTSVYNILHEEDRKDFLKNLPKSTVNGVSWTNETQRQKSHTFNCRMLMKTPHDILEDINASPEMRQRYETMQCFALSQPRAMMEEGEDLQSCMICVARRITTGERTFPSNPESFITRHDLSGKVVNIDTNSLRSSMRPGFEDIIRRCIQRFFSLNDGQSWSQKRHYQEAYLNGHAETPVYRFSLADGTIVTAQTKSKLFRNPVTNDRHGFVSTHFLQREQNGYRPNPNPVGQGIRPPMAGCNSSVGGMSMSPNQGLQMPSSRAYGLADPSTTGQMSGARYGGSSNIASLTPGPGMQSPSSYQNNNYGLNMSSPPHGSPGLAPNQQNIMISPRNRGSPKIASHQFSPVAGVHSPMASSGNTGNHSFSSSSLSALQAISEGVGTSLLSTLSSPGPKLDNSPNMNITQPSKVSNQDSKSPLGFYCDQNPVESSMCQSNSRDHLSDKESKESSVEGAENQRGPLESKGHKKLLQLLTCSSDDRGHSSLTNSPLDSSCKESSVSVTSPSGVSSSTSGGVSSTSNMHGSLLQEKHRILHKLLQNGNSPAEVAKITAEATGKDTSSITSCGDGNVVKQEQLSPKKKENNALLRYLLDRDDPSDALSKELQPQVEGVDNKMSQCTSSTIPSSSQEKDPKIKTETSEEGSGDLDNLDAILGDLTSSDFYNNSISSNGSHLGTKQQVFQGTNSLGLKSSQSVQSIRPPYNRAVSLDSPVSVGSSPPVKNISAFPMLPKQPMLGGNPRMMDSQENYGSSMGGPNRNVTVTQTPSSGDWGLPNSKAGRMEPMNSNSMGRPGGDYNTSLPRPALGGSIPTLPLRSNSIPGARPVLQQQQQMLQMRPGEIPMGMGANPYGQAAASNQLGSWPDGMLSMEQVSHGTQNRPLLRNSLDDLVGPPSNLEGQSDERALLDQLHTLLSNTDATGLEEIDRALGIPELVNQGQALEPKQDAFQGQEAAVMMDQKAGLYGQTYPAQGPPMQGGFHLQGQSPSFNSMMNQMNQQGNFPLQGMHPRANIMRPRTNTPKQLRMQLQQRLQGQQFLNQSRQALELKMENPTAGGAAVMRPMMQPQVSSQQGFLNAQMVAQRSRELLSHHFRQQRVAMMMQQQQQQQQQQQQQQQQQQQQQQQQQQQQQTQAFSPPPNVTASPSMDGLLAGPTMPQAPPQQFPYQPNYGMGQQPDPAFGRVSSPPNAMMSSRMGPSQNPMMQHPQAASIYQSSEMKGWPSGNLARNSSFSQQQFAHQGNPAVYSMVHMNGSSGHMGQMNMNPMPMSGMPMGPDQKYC

On to p300, recombinant, Q09472 1-2414, for which the stoichiometry N (p300 molecule per two SRC-3) was 1.
